Source: patent US20080113421A1, “Stabilizing proteins against denaturation and inactivation by charged detergents using chemical modifications, including modifications that increase net charge” (President and Fellows of Harvard College, priority 2006, published 2008)

What was measured:
[1] = from solutions of GuHCl; cited from earlier work
[2] = Refolding of SDS-denatured protein by dilution or removal of SDS, monitored by DNSA fluorescence; format: physicochemical
Protocol: Monitoring refolding of BCA and BCA-Ac18 was performed as follows. The proteins (10 micomolar) were denatured in 10 mM SDS for 24 h. […] Refolding was initiated by dilution of an aliquot of the denatured sample to a final concentration of protein of 200 nM, with varying concentrations of SDS in the buffer. Immediately prior to the measurement, an aliquot of renaturing protein was mixed with an equal aliquot of DNSA. The rate constants for renaturation were determined by fitting the data to FU=FUmax(1-e^−kt)+FUmin. The refolding experiments at 37° C. were performed similarly.
The kinetics of refolding were determined as follows. The rates of refolding of BCA and BCA-Ac18 from the fully denatured states (in 10 mM SDS) were measured by dilution of the solutions into buffers containing concentrations of SDS from 0.1 to 2 mM, using the fluorescence of DNSA as a marker for the appearance of the folded state. […] As in denaturation studies, an aliquot of solution of the protein and SDS was mixed with an equal aliquot of solution of DNSA with the same amount of SDS immediately prior to the measurement to eliminate the possibility of DNSA influencing refolding kinetics. The buffer also contained 100 micromolar ZnSO4 to ensure that the folded protein could incorporate a Zn(II) cofactor.
The raw data emphasize the decrease in the yield of folded protein with increasing concentration of SDS. […] The half-lives (t1/2) for renaturation were determined, where possible, by fitting the data to FU=FUmax(1-exp(−t/t1/2))+FUmin; the fits are shown (solid lines). The tables provide data for refolding in 0.1 and 0.4 mM SDS as well as for concentrations on the graphs for comparison. […] The error bars represent the difference between the average and the largest and smallest values measured from at least three replicate measurements.

[3] = Unfolding (denaturation) of protein in SDS in Tris-Gly buffer, monitored by DNSA fluorescence; format: physicochemical
Protocol: Monitoring unfolding of BCA and BCA-Ac18 was performed as follows. The proteins (200 nM) were incubated in different concentrations of SDS in Tris-Gly buffer. A 100 microliter aliquot of protein-SDS solution was mixed with 100 microliters of DNSA solution (30 micromolar) with the same concentration of SDS, and measured the intensity of fluorescence (Perkin-Elmer LS50B spectrometer, λex=280 nm, λem=460 nm) as a function of time. The denaturation of BCA was continuously monitored in concentrations of SDS above 4 mM. The rate constants were determined for denaturation by fitting the intensity vs. time data to FU=FUmaxe^−kt+FUmin. Unfolding experiments at 37° C. were performed similarly, with samples stored in a dry bath incubator (Fisher Scientific).
The kinetics of unfolding were determined as follows. The rates of denaturation of BCA and BCA-Ac18 were measured by incubating the protein (200 nM) in solutions of different concentrations of SDS. Immediately prior to the measurement, an aliquot of solution containing protein and SDS was mixed with a solution containing DNSA and the same concentration of SDS; this protocol minimized the possibility that DNSA might stabilize the native conformation of the protein, and influence the rate of its denaturation. When BCA was denatured in concentrations of SDS of 4 mM and higher, DNSA was added to the original, denaturing solution because the rate of denaturation was too fast to follow with manual mixing of aliquots of protein and DNSA. It was observed that DNSA, when present with the protein in the denaturing solution, reduced the rates of denaturation by factors of about 2-10.
FIG. 1 plots the fluorescence of DNSA, normalized to the signal at t=0, as a function of time of incubation of samples of BCA and BCA-Ac18 in various concentrations of SDS. The decrease in the intensity of fluorescence of DNSA, and thus in the amount of folded protein, followed first-order kinetics. Denaturation of proteins with surfactants probably proceeds through intermediates, but when using a marker that is specific to the folded active site of carbonic anhydrase, transitions beyond the initial unfolding of the three-dimensional structure of the protein were not detected.
The tables list the half-lives (t1/2) for denaturation of BCA and BCA-Ac18 at several concentrations of SDS. The denaturation of BCA at 4 mM occurred very rapidly, and data are not shown to avoid overlap with data at 3.5 mM. The error bars represent the difference between the average and the largest and smallest values measured from at least three replicate measurements.

[4] = Dynamic light scattering, hydrodynamic radius; format: physicochemical
Protocol: Dynamic light scattering (DLS) measurements were performed on a DynaPro light scattering device (Wyatt Technology Corp.), at protein concentrations of […].
Dynamic light scattering was also used to measure the sizes of the folded and unfolded protein and of the presumably aggregated sample. The hydrodynamic radius of the native BCA (2.7±0.7 nm), and of BCA, refolded in 0.1 mM SDS (2.6±0.6 nm), were measured. BCA was denatured in 10 mM SDS, and diluted to 1.8 mM SDS, a concentration at which no refoldings were observed immediately before the measurement. […] The small increase in the hydrodynamic radius of the incubated sample is indicative of the formation of low-order aggregates (e.g., dimers or trimers), but the resolution of DLS measurements was not sufficient to observe each species individually.

For bovine carbonic anhydrase II [BCA], the “time constant of rate-limiting step in folding” value [1] is given as roughly 10 min, the “concentration of SDS at which no refolded protein was observed” value ([2]; dilution from 10 mM SDS) is given as no less than 800 µM and the “range of SDS concentrations in which protein neither refolds nor unfolds at an observable rate (window)” value ([2]; time scales of a month) is given as 0.8 to 2 mM. For the same substance, the “refolding rate (given as time) after denaturation with SDS” value ([2]; upon complete removal of the SDS) was 11 ± 1 min, the t1/2 for denaturation ([3]; 4 mM SDS, Tris-Gly buffer, with DNSA present during denaturation) was 15 s and the t1/2 for denaturation ([3]; 10 mM SDS, Tris-Gly buffer) was less than 5 s. The “denaturation in low concentrations of SDS” value ([3]; SDS below 2 mM, long (~1 month) periods of time) was “no denaturation”, the “concentration of SDS at which the protein denatures” value ([3]; Tris-Gly buffer, CMC 4.3 mM) was no less than 2500 µM and the hydrodynamic radius ([4]; denatured in 10 mM SDS, diluted to 1.8 mM SDS immediately before measurement) was 2.9±0.6 nm. For the same substance, the hydrodynamic radius ([4]; denatured, incubated in 1.8 mM SDS for one week) was 3.6±0.9 nm, the hydrodynamic radius ([4]; native protein) was 2.7±0.7 nm and the hydrodynamic radius ([4]; refolded in 0.1 mM SDS) was 2.6±0.6 nm.
